Assay results taken from patent US20160009817A1 (Bayer, published 2016).

T1: human tissue factor pathway inhibitor (TFPI) (human, UniProt P10646 29-282, limits assumed)
T1 construct: also called Human TFPI
T1 sequence (looked up): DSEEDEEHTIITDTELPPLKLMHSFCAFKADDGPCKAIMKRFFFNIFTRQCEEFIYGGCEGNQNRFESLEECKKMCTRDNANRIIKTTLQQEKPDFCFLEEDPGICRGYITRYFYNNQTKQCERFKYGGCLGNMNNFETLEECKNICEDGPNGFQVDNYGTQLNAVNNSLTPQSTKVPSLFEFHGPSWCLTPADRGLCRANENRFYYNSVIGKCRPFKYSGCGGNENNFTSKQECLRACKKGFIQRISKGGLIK


Legend:
[1] = molecular target: T1, human tissue factor pathway inhibitor …; assay: SPR (Biacore) kinetics, human TFPI immobilised; antibody with HSA; reference gA200
Method: (§1) Human TFPI was immobilized on CM4 or CM5 chip using amine coupling kit based on manufacturer's instruction. Anti-TFPI pro-drug antibodies or parental anti-TFPI antibody were flowed through the system with 10 μg/mL antibody with or without 15 μg/mL human serum albumin (HSA). The binding level was measure at 2 seconds after completion of each injection. In kinetics assay, antibodies with a series of concentrations were injected, followed by 30-minute dissociation time. The dissociation and association rate of the antibodies were modeled using BiaEvaluation software.

[2] = molecular target: T1, human tissue factor pathway inhibitor …; assay: SPR (Biacore) kinetics, human TFPI immobilised
Method: as §1

[3] = molecular target: T1, human tissue factor pathway inhibitor …; assay: SPR (Biacore), TFPI; with HSA against antibody alone
[4] = molecular target: T1, human tissue factor pathway inhibitor …; assay: SPR (Biacore), TFPI; antibody alone (reference)
[5] = molecular target: T1, human tissue factor pathway inhibitor …; assay: SPR (Biacore) kinetics, human TFPI immobilised; antibody with HSA
Method: as §1

[6] = molecular target: T1, human tissue factor pathway inhibitor …; assay: SPR (Biacore), TFPI; with monkey serum albumin against antibody alone
[7] = molecular target: T1, human tissue factor pathway inhibitor …; assay: SPR (Biacore) kinetics, human TFPI immobilised; reference gA200
Method: as §1

| Binder | Affinity decrease (fold) [1] [fold] | Kd [2] [pM] | Affinity decrease (fold) [3] [fold] | Affinity decrease (fold) [4] [fold] | Kd [5] [pM] | Affinity decrease (fold) [6] [fold] | Affinity decrease (fold) [7] [fold] |
| --- | --- | --- | --- | --- | --- | --- | --- |
| gA200 (antibody, human IgG2, lambda, V domains shown, Fc N-glycan, Human anti-TFPI IgG from human antibody libraries, optimised; no masking domain; also called parental anti-TFPI antibody gA200; unmodified anti-TFPI antibody) VH: EVQLVESGGGLVQPGGSLRLSCAASGFTFSSYGMDWVRQAPGKGLEWVSSIRGSRGSTYYADSVKGRFTISRDNSKNTLYLQMNSLRAEDTAVYYCARLYRYWFDYWGQGTLVTVSS VL: SYELTQPPSVSVSPGQTARITCSGDNLPKYYAHWYQQKPGQAPVVVIFYDVNRPSGIPERFSGSNSGNTATLTISGTQAMDEADYYCQAWWSSTPVFGGGTKLTVLG | 1.04 | 17.5 | 0.7 | 1 | 18.1 | 0.5 | 1 |
| 3E10scFv-gA200 (bispecific antibody, human IgG2, lambda, scFv against TF fused on the N-terminus of the heavy chain of anti-TFPI IgG gA200; made in CHO cells; also called 3E10sc-gA200) heavy: QVQLVESGGTLVQPGGSLRLSCAASGFSFTDAWMSWVRQAPGKELEWVSSISGSGGSTYYAGSVKGRFTISRDNSKNTLYLQMNSLRAEDTAVYYCARVLSLTDYYWYGMDVWGQGTLVTVGGGGSGGGGSGGGGSNFMLTQPHSVSASPGKTVTISCTRSSGSVASYYVQWYQQRPGSSPTTVIYEDNHRPSGVPDRFSGSIDTSSNSASLTISGLKTEDEADYYCQSYDSNNLVVFGGGTKLTVLGEGRTATSGGGLVQPGGSLRLSCAASGFTFSSYGMDWVRQAPGKGLEWVSSIRGSRGSTYYADSVKGRFTISRDNSKNTLYLQMNSLRAEDTAVYYCARLYRYWFDYWGQGTLVTVSSASTKGPSVFPLAPCSRSTSESTAALGCLVKDYFPEPVTVSWNSGALTSGVHTFPAVLQSSGLYSLSSVVTVPSSNFGTQTYTCNVDHKPSNTKVDKTVERKCCVECPPCPAPPVAGPSVFLFPPKPKDTLMISRTPEVTCVVVDVSHEDPEVQFNWYVDGVEVHNAKTKPREEQFNSTFRVVSVLTVVHQDWLNGKEYKCKVSNKGLPAPIEKTISKTKGQPREPQVYTLPPSREEMTKNQVSLTCLVKGFYPSDIAVEWESNGQPENNYKTTPPMLDSDGSFFLYSKLTVDKSRWQQGNVFSCSVMHEALHNHYTQKSLSLSPG light: SYELTQPPSVSVSPGQTARITCSGDNLPKYYAHWYQQKPGQAPVVVIFYDVNRPSGIPERFSGSNSGNTATLTISGTQAMDEADYYCQAWWSSTPVFGGGTKLTVLGQPKAAPSVTLFPPSSEELQANKATLVCLISDFYPGAVTVAWKADSSPVKAGVETTTPSKQSNNKYAASSYLSLTPEQWKSHRSYSCQVTHEGSTVEKTVAPTECS |  | 519 |  |  |  |  | 29.7 |
| Ter119scFv-gA200 (bispecific antibody, human IgG2, lambda, scFv against RBC fused on the N-terminus of the heavy chain of anti-TFPI IgG gA200; made in CHO cells; also called Ter119sc-gA200; T119sc-gA200) heavy: QVKLQESGGGLVQPGGSLKLSCVASGFTFRDHWMNWVRQAPGKTMEWIGDIRPDGSDTNYAPSVRNRFTISRDNARSILYLQMSNMRSDYTATYYCVRDSPTRAGLMDAWGQGASVTVLTGGGGSGGGGSGGGGSDIQMIQSPSVLSASVGDRVTLNCKASQNINKYLNWYQQKLGEAPKVLIYNTNNLQTGIPSRFSGSGSGTDFTLTISSLQPEDFATYFCFQHYTWPTFGGGTKLELKEGRTATSGGGLVQPGGSLRLSCAASGFTFSSYGMDWVRQAPGKGLEWVSSIRGSRGSTYYADSVKGRFTISRDNSKNTLYLQMNSLRAEDTAVYYCARLYRYWFDYWGQGTLVTVSSASTKGPSVFPLAPCSRSTSESTAALGCLVKDYFPEPVTVSWNSGALTSGVHTFPAVLQSSGLYSLSSVVTVPSSNFGTQTYTCNVDHKPSNTKVDKTVERKCCVECPPCPAPPVAGPSVFLFPPKPKDTLMISRTPEVTCVVVDVSHEDPEVQFNWYVDGVEVHNAKTKPREEQFNSTFRVVSVLTVVHQDWLNGKEYKCKVSNKGLPAPIEKTISKTKGQPREPQVYTLPPSREEMTKNQVSLTCLVKGFYPSDIAVEWESNGQPENNYKTTPPMLDSDGSFFLYSKLTVDKSRWQQGNVFSCSVMHEALHNHYTQKSLSLSPG light: SYELTQPPSVSVSPGQTARITCSGDNLPKYYAHWYQQKPGQAPVVVIFYDVNRPSGIPERFSGSNSGNTATLTISGTQAMDEADYYCQAWWSSTPVFGGGTKLTVLGQPKAAPSVTLFPPSSEELQANKATLVCLISDFYPGAVTVAWKADSSPVKAGVETTTPSKQSNNKYAASSYLSLTPEQWKSHRSYSCQVTHEGSTVEKTVAPTECS |  | 256 |  |  |  |  | 14.7 |
